To fix the notation:
T1: human FcγRIIa type R (human, UniProt P12318 36-217)
T1 construct: also called FcgRIIaR; FcγRIIa(R)
T1 chain: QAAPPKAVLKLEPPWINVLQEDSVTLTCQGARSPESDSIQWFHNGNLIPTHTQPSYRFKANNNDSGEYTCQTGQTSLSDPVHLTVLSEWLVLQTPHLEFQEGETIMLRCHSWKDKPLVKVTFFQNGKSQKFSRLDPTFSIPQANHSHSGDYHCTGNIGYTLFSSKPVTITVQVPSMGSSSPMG

T2: human FcγRIIa type H (human, UniProt P12318 36-217)
T2 construct: also called FcgRIIaH; FcγRIIa(H)
T2 sequence: T1 chain with R133H

T3: human FcγRIIb (human, UniProt P31994 43-217)
T3 construct: also called FcgRIIb; FcγIIB
T3 sequence: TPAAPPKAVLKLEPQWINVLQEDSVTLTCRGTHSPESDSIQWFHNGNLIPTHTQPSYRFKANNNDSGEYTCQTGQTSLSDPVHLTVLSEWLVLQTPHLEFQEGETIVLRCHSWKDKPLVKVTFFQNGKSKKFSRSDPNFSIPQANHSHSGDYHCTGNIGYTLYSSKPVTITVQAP

B1: IL6R-BP082/IL6R-L (antibody, human IgG1)
heavy: QVQLQESGPGLVKPSETLSLTCAVSGHSISHDHAWSWVRQPPGEGLEWIGFISYSGITNYNPSLQGRVTISRDNSKNTLYLQMNSLRAEDTAVYYCARSLARTTAMDYWGEGTLVTVSSASTKGPSVFPLAPSSKSTSGGTAALGCLVKDYFPEPVTVSWNSGALTSGVHTFPAVLQSSGLYSLSSVVTVPSSSLGTQTYICNVNHKPSNTKVDKKVEPKSCDKTHTCPPCPAPDLLGGDSVFLFPPKPKDTLMISRTPEVTCVVVDVSHEDPEVKFNWYVDGVEVHNAKTKPREEQYNSTYRVVSVLTVLHQDWLNGKEYKCKVSNKALPKPIEKTISKAKGQPREPQVYTLPPSRDELTKNQVSLTCLVKGFYPSDIAVEWESNGQPENNYKTTPPVLDSDGSFFLYSKLTVDKSRWQQGNVFSCSVMHEALHNHYTQESLSLSP
light: DIQMTQSPSSLSASVGDRVTITCRASQDISSYLNWYQQKPGKAPKLLIYYTSRLHSGVPSRFSGSGSGTDFTFTISSLQPEDIATYYCQQGNTLPYTFGQGTKVEIK
B2: IL6R-2B253/IL6R-L (antibody, human IgG1)
heavy: B1 heavy with V325M, K332A
light: B1 light
B3: IL6R-BP083/IL6R-L (antibody, human IgG1)
heavy: B1 heavy with D235E, Y298D
light: B1 light
notes: The variants were built on IL6R-BF648 (P238D), so it is read as P238D
B4: IL6R-B3/IL6R-L (antibody, human IgG1)
heavy: not shown
light: B1 light
notes: Parent polypeptide
B5: IL6R-BP085/IL6R-L (antibody, human IgG1)
heavy: B1 heavy with D235E, G239D
light: B1 light
B6: IL6R-BP089/IL6R-L (antibody, human IgG1)
heavy: B1 heavy with D235E, L236Y, K328A
light: B1 light
B7: IL6R-BP129/IL6R-L (antibody, human IgG1)
heavy: B1 heavy with Y298D
light: B1 light
B8: IL6R-BP087/IL6R-L (antibody, human IgG1)
heavy: B1 heavy with D235E, L236Y
light: B1 light
B9: IL6R-BF648/IL6R-L (antibody, human IgG1)
heavy: not shown
light: B1 light
B10: IL6R-2B261/IL6R-L (antibody, human IgG1)
heavy: B1 heavy with Y298D, K332A
light: B1 light
B11: IL6R-BP084/IL6R-L (antibody, human IgG1)
heavy: B1 heavy with D235E, V325M
light: B1 light
B12: IL6R-BP088/IL6R-L (antibody, human IgG1)
heavy: B1 heavy with D235E, G239D, K328A
light: B1 light
B13: IL6R-BP181/IL6R-L (antibody, human IgG1)
heavy: B1 heavy with P273G, K328A
light: B1 light
B14: IL6R-BP086/IL6R-L (antibody, human IgG1)
heavy: B1 heavy with D235E, K328A
light: B1 light

Changes are numbered by the printed parent chain. Names and notes keep the numbering of the source.

T5 sequence (P08637 other isoform, or with tags, fused parts or gaps limits assumed): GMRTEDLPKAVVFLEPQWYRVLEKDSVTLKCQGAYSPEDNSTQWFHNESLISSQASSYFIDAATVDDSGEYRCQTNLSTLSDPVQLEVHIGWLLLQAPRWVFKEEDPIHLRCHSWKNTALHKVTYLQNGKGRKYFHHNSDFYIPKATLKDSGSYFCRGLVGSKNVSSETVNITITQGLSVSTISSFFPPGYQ

For the first assay, the target named is T1, human FcγRIIa type R. Put plainly: SPR (Biacore), FcγR over captured antibody; binding amount / that of IL6R-BF648/IL6R-L x100. (In SPR one partner is held on a chip, and binding of the other changes the refractive index at the surface.)
Experimental: (§1) According to the following method, relative binding activities were calculated for the results of analyzing interactions with the respective FcγRs.
Take B1: the relative binding activity was 126 % of IL6R-BF648/IL6R-L.
Same read-out and setting: next, B2: 288 % of IL6R-BF648/IL6R-L; B3: 87 % of IL6R-BF648/IL6R-L; B4: 625 % of IL6R-BF648/IL6R-L.
With B5, the relative binding activity is 279 % of IL6R-BF648/IL6R-L.
For B6, the relative binding activity is 222 % of IL6R-BF648/IL6R-L.
Same read-out and setting: next, B7: 111 % of IL6R-BF648/IL6R-L; B8: 163 % of IL6R-BF648/IL6R-L; B9: 100 % of IL6R-BF648/IL6R-L.
For B10, the relative binding activity is 94 % of IL6R-BF648/IL6R-L.
Same read-out and setting: next, B11: 203 % of IL6R-BF648/IL6R-L; B12: 377 % of IL6R-BF648/IL6R-L; B13: 362 % of IL6R-BF648/IL6R-L.
The same measure, in the same setting: as for B14, the figure is 155 % of IL6R-BF648/IL6R-L.

The target of another assay is T4, human FcγRIa (human, UniProt P12314 16-292, limits assumed).
T4 construct: also called FcgRIa; CD64
T4 sequence (P12314 16-292 limits assumed): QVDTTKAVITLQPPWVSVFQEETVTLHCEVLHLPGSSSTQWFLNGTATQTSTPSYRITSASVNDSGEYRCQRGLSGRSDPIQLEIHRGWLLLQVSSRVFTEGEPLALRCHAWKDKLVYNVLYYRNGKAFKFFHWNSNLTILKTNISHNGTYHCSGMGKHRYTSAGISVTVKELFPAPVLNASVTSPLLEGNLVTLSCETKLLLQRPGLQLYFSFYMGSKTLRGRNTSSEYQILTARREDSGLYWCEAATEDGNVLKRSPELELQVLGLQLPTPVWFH
The assay is described as above.
Experimental: as §1
For the molecule B1, the relative binding activity was 74 % of IL6R-BF648/IL6R-L.
On the same count and under the same terms, as for B2, the figure is 155 % of IL6R-BF648/IL6R-L; as for B3, 50 % of IL6R-BF648/IL6R-L; as for B4, 145 % of IL6R-BF648/IL6R-L.
The same measure, in the same setting: as for B5, the figure is 19 % of IL6R-BF648/IL6R-L; as for B6, 43 % of IL6R-BF648/IL6R-L.
With B7, the relative binding activity is 68 % of IL6R-BF648/IL6R-L.
On the same count and under the same terms, as for B8, the figure is 33 % of IL6R-BF648/IL6R-L; as for B9, 100 % of IL6R-BF648/IL6R-L.
Still for that read-out and setting: next, B10: 100 % of IL6R-BF648/IL6R-L.
The same measure, in the same setting: next, B11: 109 % of IL6R-BF648/IL6R-L.
For B12, the relative binding activity is 25 % of IL6R-BF648/IL6R-L.
Still for that read-out and setting: as for B13, the figure is 108 % of IL6R-BF648/IL6R-L; as for B14, 72 % of IL6R-BF648/IL6R-L.

The next assay addresses T2, human FcγRIIa type H. The description is as above.
Experimental: as §1
With B1, the relative binding activity was 106 % of IL6R-BF648/IL6R-L.
Still for that read-out and setting: next, B2: 207 % of IL6R-BF648/IL6R-L; B3: 91 % of IL6R-BF648/IL6R-L; B4: 1600 % of IL6R-BF648/IL6R-L.
Regarding B5, the relative binding activity is 158 % of IL6R-BF648/IL6R-L.
Same read-out and setting: next, B6: 186 % of IL6R-BF648/IL6R-L; B7: 98 % of IL6R-BF648/IL6R-L; B8: 179 % of IL6R-BF648/IL6R-L.
Still for that read-out and setting: as for B9, the figure is 100 % of IL6R-BF648/IL6R-L; as for B10, 91 % of IL6R-BF648/IL6R-L; as for B11, 162 % of IL6R-BF648/IL6R-L.
On the same count and under the same terms, next, B12: 166 % of IL6R-BF648/IL6R-L.
Consider B13, for which the relative binding activity is 150 % of IL6R-BF648/IL6R-L.
On the same count and under the same terms, next, B14: 116 % of IL6R-BF648/IL6R-L.

The next assay addresses T3, human FcγRIIb. The description is as above.
Experimental: as §1
On to B1, for which the relative binding activity was 136 % of IL6R-BF648/IL6R-L.
Consider B2, for which the relative binding activity is 156 % of IL6R-BF648/IL6R-L.
Same read-out and setting: as for B3, the figure is 122 % of IL6R-BF648/IL6R-L; as for B4, 58 % of IL6R-BF648/IL6R-L; as for B5, 152 % of IL6R-BF648/IL6R-L.
The same measure, in the same setting: next, B6: 147 % of IL6R-BF648/IL6R-L.
Turning to B7, the relative binding activity was 138 % of IL6R-BF648/IL6R-L.
Same read-out and setting: next, B8: 137 % of IL6R-BF648/IL6R-L; B9: 100 % of IL6R-BF648/IL6R-L; B10: 115 % of IL6R-BF648/IL6R-L.
The same measure, in the same setting: next, B11: 141 % of IL6R-BF648/IL6R-L; B12: 161 % of IL6R-BF648/IL6R-L; B14: 137 % of IL6R-BF648/IL6R-L.

Another assay addresses T5, human FcγRIIIa type V (human, UniProt P08637 17-208, limits assumed).
T5 construct: Allotype V158 was used; also called FcgRIIIaV; FcγRIIIa(V)
The description is as above.
Experimental: as §1
For B1, the relative binding activity was 87 % of IL6R-BF648/IL6R-L.
For B2, the relative binding activity is 126 % of IL6R-BF648/IL6R-L.
The same measure, in the same setting: next, B3: 107 % of IL6R-BF648/IL6R-L.
Turning to B4, the relative binding activity was 3260 % of IL6R-BF648/IL6R-L.
As for B5, the relative binding activity is 104 % of IL6R-BF648/IL6R-L.
On to B6, for which the relative binding activity is 136 % of IL6R-BF648/IL6R-L.
For the molecule B7, the relative binding activity was 95 % of IL6R-BF648/IL6R-L.
Still for that read-out and setting: next, B8: 158 % of IL6R-BF648/IL6R-L.
Still for that read-out and setting: next, B9: 100 % of IL6R-BF648/IL6R-L; B10: 87 % of IL6R-BF648/IL6R-L; B11: 106 % of IL6R-BF648/IL6R-L.
The same measure, in the same setting: as for B12, the figure is 122 % of IL6R-BF648/IL6R-L; as for B13, 122 % of IL6R-BF648/IL6R-L.
On to B14, for which the relative binding activity was 123 % of IL6R-BF648/IL6R-L.

For the origin of these results see patent US20140105889A1 (published 2014).
